Assay results as given in the supplement of paper PMC10567573.
± gives the standard deviation.

Test: protein stability index of a GFP-peptide fusion (GPS, HEK-293T) (PSI 1-6); higher = more stable
Conditions: c terminus: a fixed tail appended
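Note: 24-mer peptide tiles fused after GFP, lentivirally expressed, FACS-sorted into six equal bins by GFP/DsRed ratio, decoded by Illumina sequencing, PSI is the read-weighted mean bin number.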

Sequence	protein stability index (treatment: DMSO)	protein stability index (treatment: MLN4924 1 uM, 8 h)
RALESELQQLRARLQGLEADCVRG [PBXIP1]	3.47 ± 0.19	3.31 ± 0.13
VRYNAEKKKVGNYYTTPIYRFRMK [YJU2B]	2.57 ± 0.17	2.86 ± 0.35
MAAMETETAPLTLESLPTDPLLLI [FBXO3]	3.44 ± 0.25	3.43 ± 0.18
QRDSKRWSRLEEFDVFSPKQDLVP [DLC1]	3.63 ± 0.13	3.8 ± 0.21
WEEAQSPANCPACREPSPKMDFKT [TRIM43]	4.56 ± 0.076	4.83 ± 0.25
AEREALQARLRDVSRREGALGWAP [ZBED3]	4.04 ± 0.13	3.92 ± 0.17
LSPEPPVYSLQDFDTLATVGTGTF [PRKX]	3.64 ± 0.21	3.59 ± 0.31
KQQNVAHCMLVSNRVSWWGSTLAM [ZBED1]	2.19 ± 0.37	2.03 ± 0.31
TPRRVFANAHTYHINSISVNSDYE [PPP2R2B]	3.35 ± 0.34	3.12 ± 0.42
AFCNGQKLQVSQQEDITKSLLVTE [IMPA1]	3.69 ± 0.12	3.73 ± 0.27
LPNKQVLGLSKLARIVEIYSRRLQ [GCH1]	2.31 ± 0.5	2.08 ± 0.53
IERSSSFSSITDSTMSLNIITVTL [DVL3]	2.8 ± 0.42	2.85 ± 0.23
LYYQSQELPNGSVKEAPAPTPTSL [PDZK1]	3.87 ± 0.27	3.93 ± 0.19
ILKHTPKEHPDVQLLEDAILIIQG [NET1]	2.12 ± 0.27	1.99 ± 0.35
TNFHGVCMFCNEEFLGNRSVILNH [ZNF277]	2.08 ± 0.33	2.11 ± 0.39
MQEFFGLKVTGKPDAETLKVMKQP [MMP1]	3.47 ± 0.15	3.53 ± 0.34
ASFCVETNNGAGFGLSILWVLLFT [SCAMP3]	2.86 ± 0.71	2.99 ± 0.12
ATRSIQVDGKTIKAQIWDTAGQER [RAB11A]	4.28 ± 0.33	4.37 ± 0.19
IYQQLSRYRGLGLLASVPSNPNGN [CRY1]	2.4 ± 0.28	2.74 ± 0.29
EPELQVGIDIMKTSFPGRGSIPEF [AASDHPPT]	3.67 ± 0.22	3.61 ± 0.29
TEGFPPGGGNARATGMFLQYTVPG [ZFYVE21]	3.11 ± 0.16	3.07 ± 0.27
LASSLSPSQDERMRSPQNLHSQED [NOL4L]	5.37 ± 0.38	5.54 ± 0.12
SRSSLMPLRNDVDKRGETTSASLL [SLC2A12]	4.55 ± 0.15	4.56 ± 0.11

Sequence	protein stability index (treatment: DMSO)	protein stability index (treatment: MLN4924 1 uM, 8 h)
LGEDNQPETQLFWDKEPWFWHDTL [TLE6]	3.37 ± 0.35	3.32 ± 0.27
DYEAGQHMEDPRRAGKMLMTLPLL [ESRRG]	3.56 ± 0.29	3.52 ± 0.15
MAGAPDERRRGPAAGEQLQQQHVS [ATP23]	5.058 ± 0.01	4.57 ± 0.25
PFVCPECGQPCSQKSGLIRHQKIH [ZNF649]	4.65 ± 0.3	4.78 ± 0.3
LFIILQVGLNTIADLWYLFGDLSL [POMT2]	3.06 ± 0.84	3.17 ± 0.064
IAGDEGTQIPADEDTQTDADSSAQ [TAF7L]	5.58 ± 0.27	5.45 ± 0.31
LERLAYLHARLRELLCELGRPSMV [PRAME]	2.42 ± 0.16	2.3 ± 0.33
KRCINLWKYALDMQQSNLDPLSPM [FEM1C]	2.33 ± 0.48	2.07 ± 0.38
GPAASEGAEQPPDLHCVLVTNPHS [GADD45A]	4.97 ± 0.14	4.95 ± 0.1
NLQSLINNEIPDCYTFSVLITFDN [MCOLN1]	2.93 ± 0.22	3.23 ± 0.74
AFPAAVSSMKKFCRPLLPSCTTRL [PSD2]	2.33 ± 0.27	2.32 ± 0.093
LFLGRILSLTSSASRLLTTALTSF [FANCE]	2.44 ± 0.1	2.27 ± 0.19
MTKAQESLTLEDVAVDFTWEEWQF [ZNF649]	3.36 ± 0.12	3.74 ± 0.44
NKILQVFWEEHKASLGREESRAPS [CBY2]	3.02 ± 0.13	3.09 ± 0.22
TACLTDRGIIMTFGSGSNGCLGHG [NEK8]	2.23 ± 0.2	2.28 ± 0.32
DLKTLSDDIKESLESEGKNSKKEE [ATE1]	5.31 ± 0.54	5.32 ± 0.31
RGLEPGKGRHHRGRGGEPRAYFMS [CHGB]	4.36 ± 0.092	4.24 ± 0.13
ESRYTSDYFISYGIEHAQCVPPSE [ETS1]	3.22 ± 0.29	3.5 ± 0.53
FLWGPRALVETSYVKVLHHMVKIS [MAGEA3]	2.01 ± 0.35	2.64 ± 0.71
QALRRLRPRTRKVKSVSPQGNSVD [NCF4]	4.32 ± 0.46	4.63 ± 0.26
RSANGFPYREDEEGAFGEHGSQGT [MAP2]	5.38 ± 0.25	5.41 ± 0.2
AVQKTDEGHPFKAYLELEITLSQE [RTN1]	2.24 ± 0.24	2.56 ± 0.17
KSKVVGDRENGSDNLPSSAGSGDK [TPD52L2]	5.39 ± 0.1	5.55 ± 0.16

Sequence	protein stability index (treatment: DMSO)	protein stability index (treatment: MLN4924 1 uM, 8 h)
CEEQKCEEEVFPLAMNYLDRFLAG [CCND2]	3.82 ± 0.17	4.05 ± 0.28
VSAGGHTLSRPPPAQVPREVLKVQ [TFE3]	3.95 ± 0.33	4.21 ± 0.11
KRNKRNPIFQDSQDTEVFSWSDNE [FAM104B]	4.46 ± 0.21	4.58 ± 0.22
SFVLSSLQLGEGVEFDVLPAFDAL [OAS1]	2.45 ± 0.59	2.26 ± 0.53
DAKDELEERLERCMSIVTSMTAGV [INTS3]	4.13 ± 0.3	4.09 ± 0.33
LELVINYQQLCIYWTKYYDFKNPI [OAS1]	3.22 ± 0.24	3.33 ± 0.18
KTIEELRDKILTATIENNRVILEI [KRT13]	2.57 ± 0.46	2.71 ± 0.64
LSVLQIAQQDLAPDPDAWLRALGE [FANCE]	2.81 ± 0.39	2.75 ± 0.3
VFFVCFVPYHIARIPYTKSQTEAH [P2RY14]	3.57 ± 0.74	3.17 ± 0.35
APTADDDDDDHDDHEDNDKMNDSE [NOL4L]	5.53 ± 0.2	5.54 ± 0.28
VKKLMRTSTPPPASVINNMLAEIF [ZBED1]	2.2 ± 0.37	2.02 ± 0.21
GPCEGPSKEDKDLDSSEGSSQEDE [SPANXN3]	5.68 ± 0.14	5.68 ± 0.14
DPELKNLFDMCGISEAQLKDRETS [WASL]	4.72 ± 0.063	4.68 ± 0.21
LIKNFHQYSVEGGKETLTPSELRD [S100A14]	4.15 ± 0.2	4.3 ± 0.26
ILIREAQNQPIDKARKTYERLVAQ [CSTF3]	2.83 ± 0.2	2.82 ± 0.11
LEGFQAQGHPPSLFPPKAKSNQPK [ATE1]	5.16 ± 0.19	5.19 ± 0.18
YPEEADGTLDCISMALTCTFNRWG [RBBP5]	2.19 ± 0.23	2.11 ± 0.28
LIQQFLTLRPDQQLHIFNTLRSHL [CDS2]	2.37 ± 0.16	2.34 ± 0.27
AAEYHAQRLKAVIVIQTYYRQWHA [IQUB]	4.97 ± 0.25	4.88 ± 0.32
SWSDGMAFCALVHSFFPDAFDYNS [SMTNL2]	2.95 ± 0.65	2.9 ± 0.67
LQASDRYRDLAGGTGRSAKEQVLR [FCHSD1]	4.18 ± 0.24	4.29 ± 0.11
SVAHLPWRMLTYKALNTFIDDLFA [CLPTM1]	2.46 ± 0.25	2.28 ± 0.37
QEQNGRLQAELAAQEALREKAAAL [LRRC45]	5.25 ± 0.21	5.31 ± 0.28

Sequence	protein stability index (treatment: DMSO)	protein stability index (treatment: MLN4924 1 uM, 8 h)
EADENENITVVKGIRLSENVIDRM [CHCHD3]	4.75 ± 0.17	4.7 ± 0.11
LRLEGLLCDVTLMPGDTDDAFPVH [KLHL13]	2.42 ± 0.24	2.48 ± 0.35
SCGGDGGIVVWNMDVERQETPEWL [WDFY2]	3.82 ± 0.34	3.79 ± 0.18
GYSMNFNMSSSRGPLPVKRGPPPR [RBMX]	3.16 ± 0.23	3.82 ± 0.72
RKFSRECEDQKQIKKPESFSKQIV [NEUROD6]	4.43 ± 0.27	4.21 ± 0.43
HSPSCLARVTGELTMTFPAGIVRV [FCHO1]	2.53 ± 0.44	2.67 ± 0.76
IEDEDQILENSSQKENVFKCDSLK [FAN1]	5.07 ± 0.1	5.01 ± 0.35
MAAEIHSRPQSSRPVLLSKIEGHQ [WDFY1]	3.84 ± 0.13	3.88 ± 0.23
GAKDSELASQNKPLWQCYLGRFND [PDS5B]	2.51 ± 0.37	3.25 ± 0.3
LTQKRSQLVKKLNDSDHQSSTSPL [VPS39]	4.8 ± 0.23	4.69 ± 0.29
YGLKPLTPNSKYVKLNVGGSLHYT [KCTD13]	2.33 ± 0.23	2.49 ± 0.19
SLKEELMCLKKNHEEEVSVLRCQL [KRT36]	3.09 ± 0.31	3.23 ± 0.4
LAPAGQTSEESRPRLSQLSVTDVT [TNXB]	4.64 ± 0.68	5.13 ± 0.31
HQTQLLYQASAMMVESRYALLIVD [RAD51]	3.17 ± 0.74	2.8 ± 0.66
IPYNAKFLGSTEVEQPKGTEVVRD [GULP1]	4.7 ± 0.44	4.69 ± 0.23
PAPEAESKQTEKDPGVQELEALID [EFHC1]	5.51 ± 0.2	5.57 ± 0.17
KEDTLLLIAEVMGEDIPEKIKDEV [C8orf76]	4.35 ± 0.49	4.22 ± 0.38
NRPLSLKDQQTFARSVGLKWRKVG [TRADD]	3.03 ± 0.15	3.17 ± 0.11
GLQAQIASSGLTVEVDAPKSQDLA [KRT18]	4.77 ± 0.35	4.94 ± 0.47
MSGQTLTDRIAAAQYSVTGSAVAR [SNAP91]	4 ± 0.19	3.98 ± 0.2
HLEEPGETQNAFLNERKQASAIKK [CHGB]	5.11 ± 0.14	5.2 ± 0.28
